Data as given in patent publication US20180135012A1.

T1: A2 domain of von Willebrand Factor (vWF-A2, recombinant), P04275
T1 chain: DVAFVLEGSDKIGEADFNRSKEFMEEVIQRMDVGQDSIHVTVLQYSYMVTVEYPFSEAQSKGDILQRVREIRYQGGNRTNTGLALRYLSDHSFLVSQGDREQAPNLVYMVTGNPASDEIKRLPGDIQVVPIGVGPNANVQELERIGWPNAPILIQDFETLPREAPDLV


Target: T1, A2 domain of von Willebrand Factor …

| Protein | enzymatic cleavage of vWF subdomain A2 detected by Western blot |
| --- | --- |
| ADAMTS13 fused to the extracellular domain of GPA, expressed on K562 erythroleukemia cells (protein) AAGGILHLELLVAVGPDVFQAHQEDTERYVLTNLNIGAELLRDPSLGAQFRVHLVKMVILTEPEGAPNITANLTSSLLSVCGWSQTINPEDDTDPGHADLVLYITRFDLELPDGNRQVRGVTQLGGACSPTWSCLITEDTGFDLGVTIAHEIGHSFGLEHDGAPGSGCGPSGHVMASDGAAPRAGLAWSPCSRRQLLSLLSAGRARCVWDPPRPQPGSAGHPPDAQPGLYYSANEQCRVAFGPKAVACTFAREHLDMCQALSCHTDPLDQSSCSRLLVPLLDGTECGVEKWCSKGRCRSLVELTPIAAVHGRWSSWGPRSPCSRSCGGGVVTRRRQCNNPRPAFGGRACVGADLQAEMCNTQACEKTQLEFMSQQCARTDGQPLRSSPGGASFYHWGAAVPHSQGDALCRHMCRAIGESFIMKRGDSFLDGTRCMPSGPREDGTLSLCVSGSCRTFGCDGRMDSQQVWDRCQVCGGDNSTCSPRKGSFTAGRAREYVTFLTVTPNLTSVYIANHRPLFTHLAVRIGGRYVVAGKMSISPNTTYPSLLEDGRVEYRVALTEDRLPRLEEIRIWGPLQEDADIQVYRRYGEEYGNLTRPDITFTYFQPKPRQAWVWAAVRGPCSVSCGAGLRWVNYSCLDQARKELVETVQCQGSQQPPAWPEACVLEPCPPYWAVGDFGPCSASCGGGLRERPVRCVEAQGSLLKTLPPARCRAGAQQPAVALETCNPQPCPARWEVSEPSSCTSAGGAGLALENETCVPGADGLEAPVTEGPGSVDEKLPAPEPCVGMSCPPGWGHLDATSAGEKAPSPWGSIRTGAQAAHVWTPAAGSCSVSCGRGLMELRFLCMDSALRVPVQEELCGLASKPGSRREVCQAVPCPARWQYKLAACSVSCGRGVVRRILYCARAHGEDDGEEILLDTQCQGLPRPEPQEACSLEPCPPRWKVMSLGPCSASCGLGTARRSVACVQLDQGQDVEVDEAACAALVRPEASVPCLIADCTYRWHVGTWMECSVSCGDGIQRRRDTCLGPQAQAPVPADFCQHLPKPVTVRGCWAGPCVGQGTPSLVPHEEAAAPGRTTATPAGASLEWSQARGLLFSPAPQPRRLLPGPQENSVQSSACGRQHLEPTGTIDMRGPGQADCAVAIGRPLGEVVTLRVLESSLNCSAGDMLLLWGRLTWRKMCRKLLDMTFSSKTNTLVVRQRCGRPGGGVLLRYGSQLAPETFYRECDMQLFGPWGEIVSPSLSPATSNAGGCRLFINVAPHARIAIHALATNMGAGTEGANASYILIRDTHSLRTTAFHGQQVLYWESESSQAEMEFSEGFLKAQASLRGQYWTLQSWVPEMQDPQSWKGKEGTYPYDVPDYALSTTEVAMHTSTSSSVTKSYISSQTNDTHKRDTYAATPRAHEVSEISVRTVYPPEEETGERVQLAHHFSEPEITLIIFGVMAGVIGTILLISYGIRRLIKKSPSDVKPLPSPDTDVPLSSVEIENPETSDQ | the cell-expressed ADAMTS13 (lane 4) appears more active than the recombinant ADAMTS13 (lane 2), despite the fact that there is 6× less cell-expressed ADAMTS13 (13ng) than recombinant ADAMTS13 (75 ng) in the assay |
| recombinant ADAMTS13 (protein) AAGGILHLELLVAVGPDVFQAHQEDTERYVLTNLNIGAELLRDPSLGAQFRVHLVKMVILTEPEGAPNITANLTSSLLSVCGWSQTINPEDDTDPGHADLVLYITRFDLELPDGNRQVRGVTQLGGACSPTWSCLITEDTGFDLGVTIAHEIGHSFGLEHDGAPGSGCGPSGHVMASDGAAPRAGLAWSPCSRRQLLSLLSAGRARCVWDPPRPQPGSAGHPPDAQPGLYYSANEQCRVAFGPKAVACTFAREHLDMCQALSCHTDPLDQSSCSRLLVPLLDGTECGVEKWCSKGRCRSLVELTPIAAVHGRWSSWGPRSPCSRSCGGGVVTRRRQCNNPRPAFGGRACVGADLQAEMCNTQACEKTQLEFMSQQCARTDGQPLRSSPGGASFYHWGAAVPHSQGDALCRHMCRAIGESFIMKRGDSFLDGTRCMPSGPREDGTLSLCVSGSCRTFGCDGRMDSQQVWDRCQVCGGDNSTCSPRKGSFTAGRAREYVTFLTVTPNLTSVYIANHRPLFTHLAVRIGGRYVVAGKMSISPNTTYPSLLEDGRVEYRVALTEDRLPRLEEIRIWGPLQEDADIQVYRRYGEEYGNLTRPDITFTYFQPKPRQAWVWAAVRGPCSVSCGAGLRWVNYSCLDQARKELVETVQCQGSQQPPAWPEACVLEPCPPYWAVGDFGPCSASCGGGLRERPVRCVEAQGSLLKTLPPARCRAGAQQPAVALETCNPQPCPARWEVSEPSSCTSAGGAGLALENETCVPGADGLEAPVTEGPGSVDEKLPAPEPCVGMSCPPGWGHLDATSAGEKAPSPWGSIRTGAQAAHVWTPAAGSCSVSCGRGLMELRFLCMDSALRVPVQEELCGLASKPGSRREVCQAVPCPARWQYKLAACSVSCGRGVVRRILYCARAHGEDDGEEILLDTQCQGLPRPEPQEACSLEPCPPRWKVMSLGPCSASCGLGTARRSVACVQLDQGQDVEVDEAACAALVRPEASVPCLIADCTYRWHVGTWMECSVSCGDGIQRRRDTCLGPQAQAPVPADFCQHLPKPVTVRGCWAGPCVGQGTPSLVPHEEAAAPGRTTATPAGASLEWSQARGLLFSPAPQPRRLLPGPQENSVQSSACGRQHLEPTGTIDMRGPGQADCAVAIGRPLGEVVTLRVLESSLNCSAGDMLLLWGRLTWRKMCRKLLDMTFSSKTNTLVVRQRCGRPGGGVLLRYGSQLAPETFYRECDMQLFGPWGEIVSPSLSPATSNAGGCRLFINVAPHARIAIHALATNMGAGTEGANASYILIRDTHSLRTTAFHGQQVLYWESESSQAEMEFSEGFLKAQASLRGQYWTLQSWVPEMQDPQSWKGKEGT | the cell-expressed ADAMTS13 (lane 4) appears more active than the recombinant ADAMTS13 (lane 2), despite the fact that there is 6× less cell-expressed ADAMTS13 (13ng) than recombinant ADAMTS13 (75 ng) in the assay |
